Laboratory results as given in patent US20070105162A1, “Monovalent avidin and streptavidin compositions” (Massachusetts Institute of Technology, priority 2005, published 2007).

Experiments:
[1] = Subunit exchange of monovalent avidin over time by SDS-PAGE; assay type: physicochemical
Procedure: (§1) Methods described in the Avidin Methods section above herein are used for the following production and testing of monovalent avidin. Tests are performed to determine whether monovalent avidin will rearrange its subunit composition over time. […] Wild-type avidin and A1D3 are heated in PBS at various temperatures and tetramer disassembly is determined by SDS-PAGE.

[2] = Subunit exchange of monovalent streptavidin over time by SDS-PAGE; assay type: physicochemical; settings: for A1D3 rearranged into D4: PBS
Procedure: Methods described in the Methods section above herein were used for the following production and testing of monovalent streptavidin. Tests were performed to determine whether monovalent streptavidin would rearrange its subunit composition over time.

[3] = Thermostability assay of avidin tetramer (SDS-PAGE); assay type: physicochemical; settings: 100° C., PBS
Procedure: 2.3 μM wild-type avidin or chimeric avidin in PBS is heated at the indicated temperature for 3 min in a PTC-200 PCR machine (MJ Research; Waltham, Mass.) and then immediately placed on ice (Bayer, E. A. et al. Electrophoresis 17: 1319-1324, 1996). Samples are mixed with 6×SDS-PAGE loading buffer and loaded onto a 16% polyacrylamide gel.
as §1

[4] = Off-rate of 3H-biotin from streptavidin (cold biotin chase); assay type: binding; settings: 50 μM cold biotin chase, 5 hours at 37° C., ± s.e.m.
Procedure: (Green, N. M. Methods in Enzymol. 184: 51-67, 1990). Dissociation was then initiated by addition of cold biotin at a final concentration of 50 μM and time-points taken over 5 hours at 37° C. 50 μL aliquots were removed and added to 200 μL 0.2M ZnSO4 chilled on ice, followed by 200 μL 0.2 M NaOH. The protein precipitate was pelleted by centrifugation at 16,500 g for 5 min, and ^3H-biotin in the supernatant was measured by liquid scintillation counting. Data were plotted as ln(fraction bound) versus time, and fit to a straight line by linear regression. Dissociation rates were deduced from the slope of the line and the equation: ln(fraction bound)=−koff(t) where fraction bound=(total ^3H-biotin−free ^3H-biotin at timepoint)/(total ^3H-biotin−free ^3H-biotin before cold biotin chase).

[5] = tested on: biotinylated AP-neuroligin-1 on hippocampal neurons; experiment: AP-neuroligin-1 clustering in hippocampal neurons labeled with streptavidin; assay type: cell-based, rat; settings: two hour incubation at 37° C., Alexa Fluor 568 conjugate; ± s.e.m., n=9
Procedure: HeLa cells were grown in Dulbecco's Modified Eagle Medium (DMEM) with 10% Fetal Calf Serum, 50 U/mL penicillin and 50 μg/mL streptomycin. HeLa stably expressing AP-CFP-TM or Ala-CFP-TM have been previously described (Howarth, M. et al., Proc. Natl. Acad. Sci. USA 102: 7583-7588, 2005). Dissociated primary neuronal cultures were prepared from Embryonic Day 18 or 19 (E18/19) rats and transfected with Lipofectamine 2000 at DIV6 as in Levinson et al. (Levinson, J. N. et al., J. Biol. Chem. 280: 17312-17319, 2005). […]
Images of HeLa cells were collected on a Zeiss Axiovert 200M inverted epifluorescence microscope using a 40× oil-immersion lens and a MicroMAX CCD camera (Roper Scientific; Tucson, Ariz.). CFP (420DF20 excitation, 450DRLP dichroic, 475DF40 emission) and Alexa568 (560DF20 excitation, 585DRLP dichroic, 605DF30 emission) images were collected and analyzed using OpenLab software (Improvision; Lexington, Mass.). Fluorescence images were background-corrected. […] Images were scaled to 16 bits and analyzed in Northern Eclipse (Empix Imaging; Ontario, Canada) with user-written software. […] Results were then calculated in terms of clusters per micrometer of dendrite. For assessment of pre-synaptic terminals, clusters were determined as before and average grey levels of clusters were compared between transfected dendrites and untransfected dendrites within the same field of view. […]

[6] = 37° C. one day or room temperature one week

A1D3: Monovalent streptavidin tetramer: one His6-tagged wild-type (A) subunit and three dead (D) subunits [Tetramer A1D3]
A1D3 avidin rearranged into D4 ([1]; 37° C. for one day or room temperature for one week): small percentage
Formation of A2D2 from subunit exchange [1, 6]: not detected
A1D3 rearranged into D4 ([2]; 37° C. incubation for one day): 2%
Formation of A2D2 from subunit exchange [2, 6]: not detected
A1D3 rearranged into D4 ([2]; room temperature incubation for one week): 3%
fraction remaining tetrameric on heating [3]: significant fraction
off-rate from biotin [4]: 6.14±0.19×10^−5 s^−1
AP-neuroligin-1 clusters per micrometer of dendrite [5]: 0.087±0.021 clusters/μm
